In article PMC2962642, “Familial Glucocorticoid Receptor Haploinsufficiency by Non-Sense Mediated mRNA Decay, Adrenal Hyperplasia and Apparent Mineralocorticoid Excess”:

Biological target: hGRalpha-R469X (Homo sapiens, UniProt P04150 1-468)
Assay: EMSA; 15 min at 25 C; 4.5% acrylamide/bisacrylamide (37:1) gel, 0.25x TBE (50 mM Tris, 50 mM boric acid, 1 mM EDTA); binding buffer and pH not stated (as in ref. 26)
Settings: protein: ivt; label: 32P-dCTP (Klenow fill-in); 5' overhangs AGCT, filled in by Klenow for the labeled probe

Sequence of hGRalpha-R469X (P04150 1-468): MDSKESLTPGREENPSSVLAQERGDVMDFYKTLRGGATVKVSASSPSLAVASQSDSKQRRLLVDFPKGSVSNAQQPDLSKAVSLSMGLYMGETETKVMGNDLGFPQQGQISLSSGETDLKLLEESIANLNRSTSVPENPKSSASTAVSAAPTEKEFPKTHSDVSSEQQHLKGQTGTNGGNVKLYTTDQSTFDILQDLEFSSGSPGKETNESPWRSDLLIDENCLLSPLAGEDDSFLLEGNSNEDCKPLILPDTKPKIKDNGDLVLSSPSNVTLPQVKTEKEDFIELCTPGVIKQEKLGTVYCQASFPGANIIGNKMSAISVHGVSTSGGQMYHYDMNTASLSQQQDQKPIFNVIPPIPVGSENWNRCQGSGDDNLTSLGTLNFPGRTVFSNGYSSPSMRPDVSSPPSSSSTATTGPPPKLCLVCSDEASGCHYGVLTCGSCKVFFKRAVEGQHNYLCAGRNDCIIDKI

B1: GRE consensus probe (dsDNA)
DNA 1: AGCTGCTCAGCTAGAACACTCTGTTCTCTACT
DNA 2: AGCTAGTAGAGAACAGAGTGTTCTAGCTAGC
  binding result: no binding
